Experimental findings from the DeepSol protein solubility set are described below.

The nature of the series: soluble on expression in E. coli; label from the status in PepcDB or PDB records.
For “MTFQVILCYETVRQVAGLESELKANGFGQAQVLPNGTVPNRGSIVDLTNAISKLGVLRATAAGLAGTISRGGAVAIVPAHFGAGGKATEIMKKYNPIVDRPAAKPSAWDDAAPFSSLLRLPVITKSQPFKGHSGTPLIIEQEGAYRSNSGEPLVIKQTGGYRSMSGTPLLLDGGPYKSFSGTPLLIEQKDAYSSFSGTPLLVDSNTLFLTRA”, the “soluble on expression in E. coli” value is reported as “not soluble”.

Consider “MGSDKIHHHHHHMDKILNLDSVDLYNKLYGLETLNPLVSVIDLNKATSSVDLIRFNYGIYALYLKLEKACDIKYGRQTYDYQEGTIVCFAPGQTAETNPTTDKVQVNAHGILFHPDLLRGTSLGKNIKKYTFFSYEVNEALHLSEEERSIVMDCLKIIRMELEHGVDKHSKTLLVNHIELLLNYCMRFYERQFITRGKTNRDVLTRFENLLDEYFESTLAEQDGLPTVKYFADKLCLSSNYFGDMFKKETGKSPQEYIQEKVIELAKERISGTADTVSQIAYSLGFQYPQHSCRLFKKRVGYTPSEYRAQIGLSTNL”, for which the “soluble on expression in E. coli” value is listed as “not soluble”.

As for “MAADPVFKEALQCIRCASCTNVCPVFQLVSGQVYGYIYNGGIGSVLTAFFNSLEDAVDPQSLCIGCRRCAEVCPAKINIPDLVLKLRERVVTKQGLEHHHHHH”, the “soluble on expression in E. coli” value is “not soluble”.

In the case of “MAHHHHHHMKQNGGRETPDGVRYPHIALDVLGQCHSSACVELGNTRVICAVHHPQQLVDEYRGSRGRVACTVRRSASAGSHAAGSAQPSVVTPEKDMSLALEGVAEEVVILEKIPQLLVEVVVEILAEDGGVWDAVATSMSAALVSGGFEMYDLFSACGSALLSDGAVVLDPDAAEESNAQASALVCLMLNSGDICYARHQGSCEPGTVLELVSSAMKGCLSRKSAITTQLINHPIL”, the “soluble on expression in E. coli” value is “not soluble”.

“MGKKRKITDEKDAQHVPAEKREKVENWLKKSTEKPTSSQSDAEKKKKRPWRNKVRKLAAKKAAADKKSENPEEPPLILEPKSSSDENTKKKRKRGPKKKKFKPEVAGKAAETENDDVAAAPEEADPIAEAKKRLDAGRFRFLNEKLYTCTGSEAFDFFKEDPTAFDLYHKGFADQVKKWPNHPLREIIRWLQSKPDQQSVFDLGCGEAKIAEAVGEKHKIRSFDLVAVNDRVESCDMSKLPAEDSSADIVIYCLSLMGTNLYDFIREARRVLKIGGILKIAEVTSRFVSIKQFCEAITKMGFEQSHRRELTDYFMMMEFKKVEKVEQKRPYGLKLKPCLYKKR”: the “soluble on expression in E. coli” value is recorded as “soluble”.

“MALDNAKTSQKLQSLAELDGKAPSHRNLNVQTWSTAEGAKVLFVEARELPMFDLRLIFAAGSSQDGNAPGVALLTNAMLNEGVAGKDVGAIAQGFEGLGADFGNGAYKDMAVASLRSLSAVDKREPALKLFAEVVGKPTFPADSLARIKNQMLAGFEYQKQNPGKLASLELMKRLYGTHPYAHASDGDAKSIPPITLAQLKAFHAKAYAAGNVVIALVGDLSRSDAEAIAAQVSAALPKGPALAKIEQPAEPKASIGHIEFPSSQTSLMLAQLGIDRDDPDYAAVSLGNQILGGGGFGTRLMSEVREKRGLTYGVYSGFTPMQARGPFMINLQTRAEMSEGTLKLVQDVFAEYLKNGPTQKELDDAKRELAGSFPLSTASNADIVGQLGAMGFYNLPLSYLEDFMRQSQELTVEQVKAAMNKHLNVDKMVIVSAGPTVAQKPLEHHHHHH”: the “soluble on expression in E. coli” value is listed as “not soluble”.

In the case of “MALALTLREYEFSVLLLEARELPEKVDDPRPLALSYGSRLILQRLDIWKNLTQPAPITTIHISNRGHFGHAVLTPDDAGVPALGYVVNYHDLYHSMGRAIRGSNAVYQTNALVTAIRTDLSLAQVAYQQGSTTRQVRARLLVLADGGKLAEQIDGVRYHTYDYQQTAIVANVKVESPRPGTAFERFTLNGPLALLPSGEGYALVWTMPAAAAEKILKLDDRSFLLHLHEQFGDRMGEFTHVGPRSSFPLILKHASTITGHRAVLIGNAAQALHPVAGQGFNLGLRDAWELASEISRIPSGTPGEPGSTRMLAAYSRRRQSDKRISRLFTDSLVKLFTADLPLVQTCSGMGLAALDNLPPARRLIAHQMIFGTKGWFIGLEHHHHHH”, the “soluble on expression in E. coli” value is on record as “soluble”.

Take “MIHLEHINLVVDDIPKALIFYQAAFPHWRIRGGGESTWYSKPRNWTHFGDDYQYIAFSDNGEGENRDLTGHQIGLAHFAFVVSDLDAIITRLTQAGFPIAKEGMEDPYRRNIYFFDAHGFEVEFVEYLSDIPAERNRYLEHHHHHH”: the “soluble on expression in E. coli” value is “soluble”.

Consider “HNPIDLMREIGALRQRGYNDRQIGEKIGVSTEYVNMIAGLLEKGEERLVSAVETGVLPLNLAIEISKTDAKGAQKALMDAYTQNKLRGRKLALVRRLIQQRELRGPQLHSNPLGRKPPKRALTSEGLVRAYQQEATRQKLLIKKAELTQSRLMFVREAFRKLRAD”, for which the “soluble on expression in E. coli” value is given as “not soluble”.
